Data published in the supplement of paper PMC10567573.
± gives the standard deviation.

Experiment: protein stability index of a GFP-peptide fusion (GPS, HEK-293T) (PSI 1-6); higher = more stable
Settings: c terminus: a fixed tail appended
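Further: 24-mer peptide tiles fused after GFP, lentivirally expressed, FACS-sorted into six equal bins by GFP/DsRed ratio, decoded by Illumina sequencing, PSI is the read-weighted mean bin number.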

Row | Sequence | protein stability index (treatment: DMSO) | protein stability index (treatment: MLN4924 1 uM, 8 h)
1 | VGDLMGSLAYCLACGGGHLLPYFY [DHCR7] | 3.12 ± 0.28 | 3.47 ± 0.39
2 | QGELADQDVDPVHNLIEQVSLGLG [FBXO33] | 4.55 ± 0.27 | 4.66 ± 0.072
3 | QRYILYWRKRFTEQPITDFCSVIR [ZNF277] | 1.93 ± 0.23 | 2.24 ± 0.26
4 | PRLWTTCRDGEVLLRLSKHGPGHE [ACSBG2] | 2.4 ± 0.15 | 2.21 ± 0.17
5 | HDFLSDLFSDDYGGKNCKKPAEYG [CEBPB] | 3.83 ± 0.16 | 3.8 ± 0.17
6 | TNLPKGACALLLTSVDHDRAPVVG [DLC1] | 2.97 ± 0.17 | 2.85 ± 0.3
7 | GVSEILLKTQMKMSLKCLAARAVR [FEM1B] | 2.65 ± 0.56 | 2.58 ± 0.26
8 | TSANKITLVSSGSGTMGAAKVTGE [FLOT1] | 4.63 ± 0.12 | 4.69 ± 0.26
9 | EMAATPAGFAQLTHLLMGLAGGKL [HDAC6] | 2.26 ± 0.39 | 2.39 ± 0.22
10 | PVQASQLEEEFDSDSGLSLDSSHS [NFE2L1] | 5.51 ± 0.11 | 5.46 ± 0.22
11 | TDKVGTEAAFHPIEEYMVHVEEHF [FUT8] | 4.07 ± 0.27 | 4.31 ± 0.33
12 | TMLATRNFSAAKSLLKKPDGVKES [CAMK2D] | 4.36 ± 0.067 | 4.33 ± 0.51
13 | PDVENEVKRLLRSDAEAVSTRWEV [TAF7L] | 3.24 ± 0.63 | 3.76 ± 0.65
14 | YVFFEKDFGDMHSYVRSRKRLREE [TRIB1] | 2.46 ± 0.59 | 2.66 ± 0.93
15 | TWEHSNLEVNKPKNRYANVIAYDH [PTPRD] | 2.98 ± 0.27 | 3.02 ± 0.32
16 | KDLDGMDADILGLKKSNSAPSKKA [FBF1] | 5.03 ± 0.22 | 5 ± 0.18
17 | ELQGFWMDIGQPKDFLTGMCLFLQ [GMPPB] | 2.19 ± 0.25 | 2.01 ± 0.35
18 | TLERYMCSRFFIDFPDILEQQRKL [TENT5C] | 2.35 ± 0.16 | 2.37 ± 0.037
19 | VNYLPQNMTQDEFKSLFGSIGDIE [ELAVL3] | 3.8 ± 0.11 | 4 ± 0.27
20 | RSLLLKYARTPTLDPDTMHARLRL [TRIM14] | 2.45 ± 0.35 | 2.37 ± 0.44
21 | LAEIRSDLERQNQEYQVLLDVRAR [KRT33B] | 3.84 ± 0.25 | 4.02 ± 0.32
22 | VLGAHRGHPVGLALEAAVHVQKLS [TRIM14] | 2.63 ± 0.3 | 2.91 ± 0.26

Row | Sequence | protein stability index (treatment: DMSO) | protein stability index (treatment: MLN4924 1 uM, 8 h)
23 | NVKTLKDGKPFPELVLEQQLDREA [PCDHGC5] | 5.07 ± 0.33 | 5.02 ± 0.13
24 | GAMLGQTTSEEAVGGATPDQTTSE [HDAC6] | 4.91 ± 0.58 | 5.59 ± 0.073
25 | RLEAARLSLEEELSRVKAAALSER [LRRC45] | 3.71 ± 0.21 | 4.04 ± 0.39
26 | GSYNGQIGWFPSNYVLEEVDEAAA [NCK2] | 4.65 ± 0.29 | 4.66 ± 0.36
27 | VRVCDLLLKKKPPQQQHHKAKRNR [ANKRD17] | 3.33 ± 0.39 | 3.38 ± 0.22
28 | IHPKNPHAPTIHFNYRYFEVEEAD [CPOX] | 3.75 ± 0.18 | 3.88 ± 0.17
29 | LCLACSAGYYELAQVLLAMHANVE [ANKRD17] | 2.96 ± 0.48 | 2.56 ± 0.25
30 | LECEINTYRSLLESEDCKLPSNPC [KRT33B] | 4.07 ± 0.11 | 4.25 ± 0.23
31 | FHALVREIRRKEKEAVLAMEKKSK [RIT1] | 2.52 ± 0.6 | 3.07 ± 0.57
32 | LPTLVPWYFWGETFQNSVFVATFL [SCD] | 3.15 ± 0.076 | 3.09 ± 0.35
33 | EKEKHVNQLQTKVAVLEQEIKDKD [SASS6] | 5.38 ± 0.12 | 5.53 ± 0.14
34 | FVKALDDLHKMNHVTPPNVSLGAT [JUNB] | 2.43 ± 0.34 | 2.94 ± 0.49
35 | IGRAAGTGFTVNVAWNGPRMGDAD [HDAC6] | 3.02 ± 0.28 | 3.15 ± 0.32
36 | VGRIIAPLLSGVAQEVSPCGPPSL [MFSD9] | 2.72 ± 0.23 | 2.65 ± 0.29
37 | PKGGQVQIVTKKIDLSHVTSKCGS [MAP2] | 3.92 ± 0.18 | 3.91 ± 0.37
38 | LGLTNQSRRYNRKEPAEFNGDGAF [ZNF649] | 3.96 ± 0.29 | 4.26 ± 0.37
39 | ARFGSGPCKTRDDEPVCGRPLGIR [APMAP] | 3.75 ± 0.28 | 3.87 ± 0.35
40 | NYSYRGYGALSSNLQPPASLQTGN [NOL4L] | 3.64 ± 0.2 | 3.8 ± 0.25
41 | PMVLKGKIRPDSSRPELLQPLNFV [GLT8D2] | 2.83 ± 0.2 | 3 ± 0.3
42 | SSSQKEESPSTLQVLPDSESLPRS [MAGEA10] | 5.36 ± 0.23 | 5.4 ± 0.16
43 | TEGPSLLNQKGTAVETEGSGSRHP [SLC2A12] | 5.43 ± 0.21 | 5.36 ± 0.43
44 | SWLEENVHEVLQAVDAGDPAVEAC [TCF25] | 4.86 ± 0.14 | 4.84 ± 0.32
